Changes are numbered by the printed parent chain. Like-named read-outs stand apart in the source and are kept apart here.
Tests used:
[1] = target: HLA-A*02:01/MAGE-A4 displayed on T2 cells (human); experiment: cell-based or functional assay
[2] = target: T1, HLA-A*02:01/MAGE-A4 complex (human, UniProt P04439 25-299 at identity 0.94); P61769 21-119); experiment: SPR (Biacore T200), HLA-A*02:01/MAGE-A4 as ligand; sample kept in human serum at 37 C for 0, 7 and 24 h and injected after 1:100 dilution; signal relative to the start sample
T1 construct: Coated on ELISA plates and on a streptavidin SPR chip; a biotin tag is not described; also called HLA-A2/MAGE-A4 complex; pMHC-MAGE-A4

[3] = target: T1, HLA-A*02:01/MAGE-A4 complex; experiment: direct ELISA, plate coated with HLA-A*02:01/MAGE-A4 complex, serial dilution of the Fab
[4] = target: T1, HLA-A*02:01/MAGE-A4 complex; experiment: SPR (Biacore T200), HLA-A*02:01/MAGE-A4 as ligand; sample kept in human serum at 37 C for 0, 7 and 24 h and injected after 1:100 dilution; signal relative to the start sample; remark: listed apart in the source
[5] = target: T1, HLA-A*02:01/MAGE-A4 complex; experiment: SPR
[6] = target: T1, HLA-A*02:01/MAGE-A4 complex; experiment: SPR; remark: listed apart in the source
[7] = target: T1, HLA-A*02:01/MAGE-A4 complex; experiment: direct ELISA, plate coated with HLA-A*02:01/MAGE-A4 complex, as in Example 6

B1: M1397 (bispecific antibody)
heavy: EVQLVESGGGLVQPGGSLRLSCAASGFTFSTYAMNWVRQAPGKGLEWVGRIRSKYNNYATYYADSVKGRFTISRDDSKNTLYLQMNSLRAEDTAVYYCVRHGNFGDSYVSWFAYWGQGTLVTVSSASTKGPSVFPLAPSSKSTSGGTAALGCLVKDYFPEPVTVSWNSGALTSGVHTFPAVLQSSGLYSLSSVVTVPSSSLGTQTYICNVNHKPSNTKVDKRVEPKSCGGGGSQSVLTQDPAVSVALGQTVRITCTADTLSRSYASWYQQKPGQAPVLVIYRDTSRPSGIPDRFSGSSSGNTASLTITGAQAEDEADYYCATRPSSGSNFQAFGGGTKLTVLGGGGGSGGGGSGGGGSGGGGSEVQLLESGGGSVQPGGSLRLSCTVSGFSLSNYAMSWVRQAPGKGLEWIGIVSSGGTTYYADSVKGRFTISRDNSKNTVYLQMNSLRAEDTASYYCAKDLYYGPNTDYSAANLWGQGTSVTVSS
light: QAVVTQEPSLTVSPGGTVTLTCGSSTGAVTTSNYANWVQQKPGKSPRGLIGGTNKRAPGVPARFSGSLLGGKAALTISGAQPEDEADYYCALWYSNHWVFGGGTKLTVLGQPKAAPSVTLFPPSSEELQANKATLVCLISDFYPGAVTVAWKADSSPVKAGVETTTPSKQSNNKYAASSYLSLTPEQWKSHRSYSCQVTHEGSTVEKTVAPTECSGGGGSQSVLTQDPAVSVALGQTVRITCTADTLSRSYASWYQQKPGQAPVLVIYRDTSRPSGIPDRFSGSSSGNTASLTITGAQAEDEADYYCATRPSSGSNFQAFGGGTKLTVLGGGGGSGGGGSGGGGSGGGGSEVQLLESGGGSVQPGGSLRLSCTVSGFSLSNYAMSWVRQAPGKGLEWIGIVSSGGTTYYADSVKGRFTISRDNSKNTVYLQMNSLRAEDTASYYCAKDLYYGPNTDYSAANLWGQGTSVTVSS
notes: Fab(scFv)2 dual pMHC-targeting T cell engager, no Fc; also called dual engager M1397; dual T cell engager M1397
B1 was tested, and the “IFN-gamma release (T cell activation) with PBMCs and T2 cells pulsed with titrated peptide, compound at 1 nM; EC50 on the peptide concentration” value [1] was 5.75 nM and the binding result [2] was “binds”.

B2: M0702 (Fab, V domains shown)
VH: QEQLEESGGGLVTPGTPLTLTCTASGFSLSSYAMIWVRQAPGKGLEWIGTINDGGTAFYANWVKGRFTISRTSTTVDLKMTSPTTEDTATYFCARAYGSNGDVYWGYVNLWGQGTLVTVSS
VL: ELVMTQTPASVSEPVGGTVTIKCQASQSIGSNLAWYQQKPGQPPKLLIYAAANLASGVSSRFKGSRSGTEYTLTISGVQAADAATYYCQQGYSSSNVANVFGGGTELEILR
For B2, the “EC50 (read off the curve)” value [3] was ~0.6 nM.

B3: M1403 (bispecific antibody)
heavy: EVQLVESGGGLVQPGGSLRLSCAASGFTFSTYAMNWVRQAPGKGLEWVGRIRSKYNNYATYYADSVKGRFTISRDDSKNTLYLQMNSLRAEDTAVYYCVRHGNFGDSYVSWFAYWGQGTLVTVSSASTKGPSVFPLAPSSKSTSGGTAALGCLVKDYFPEPVTVSWNSGALTSGVHTFPAVLQSSGLYSLSSVVTVPSSSLGTQTYICNVNHKPSNTKVDKRVEPKSCGGGGSSYELTQPPSVSVSPGQTASITCTADTLSRSYASWYQQKPGQSPVLVIYRDTSRPSGIPERFSGSNSGNTATLTISGTQAMDEADYYCATRPSSGSNFQAFGGGTKLTVLGGGGGGSGGGGSGGGGSGGGGSEVQLLESGGGSVQPGGSLRLSCTVSGFSLSNYAMSWVRQAPGKGLEYIGIVSSGGTTYYASWAKGRFTISRDNSKNTVYLQMNSLRAEDTASYYCAKDLYYGPTTYSAFNLWGQGTSVTVSS
light: QAVVTQEPSLTVSPGGTVTLTCGSSTGAVTTSNYANWVQQKPGKSPRGLIGGTNKRAPGVPARFSGSLLGGKAALTISGAQPEDEADYYCALWYSNHWVFGGGTKLTVLGQPKAAPSVTLFPPSSEELQANKATLVCLISDFYPGAVTVAWKADSSPVKAGVETTTPSKQSNNKYAASSYLSLTPEQWKSHRSYSCQVTHEGSTVEKTVAPTECSGGGGSSYELTQPPSVSVSPGQTASITCTADTLSRSYASWYQQKPGQSPVLVIYRDTSRPSGIPERFSGSNSGNTATLTISGTQAMDEADYYCATRPSSGSNFQAFGGGTKLTVLGGGGGGSGGGGSGGGGSGGGGSEVQLLESGGGSVQPGGSLRLSCTVSGFSLSNYAMSWVRQAPGKGLEYIGIVSSGGTTYYASWAKGRFTISRDNSKNTVYLQMNSLRAEDTASYYCAKDLYYGPTTYSAFNLWGQGTSVTVSS
notes: Fab(scFv)2 dual pMHC-targeting T cell engager, no Fc; also called dual engager M1403
B3: binds [4].

B4: M1067 (bispecific antibody)
chain 1: SYELTQPPSVSVSPGQTASITCTADTLSRSYASWYQQKPGQSPVLVIYRDTSRPSGIPERFSGSNSGNTATLTISGTQAMDEADYYCATRPSSGSNFQLFGGGTKLTVLGGGGGGSGGGGSGGGGSGGGGSEVQLLESGGGSVQPGGSLRLSCTVSGFSLSNYAMSWVRQAPGKGLEYIGIVSSGGTTYYASWAKGRFTISKDTSKNTVYLQMNSLRAEDTASYYCAKDLYYGPTTYSAFNLWGQGTSVTVSS
chain 2: EVQLVESGGGLVQPGGSLRLSCAASGFTFSTYAMNWVRQAPGKGLEWVGRIRSKYNNYATYYADSVKGRFTISRDDSKNTLYLQMNSLRAEDTAVYYCVRHGNFGDSYVSWFAYWGQGTLVTVSSASTKGPSVFPLAPSSKSTSGGTAALGCLVKDYFPEPVTVSWNSGALTSGVHTFPAVLQSSGLYSLSSVVTVPSSSLGTQTYICNVNHKPSNTKVDKRVEPKSC
chain 3: QAVVTQEPSLTVSPGGTVTLTCGSSTGAVTTSNYANWVQQKPGKSPRGLIGGTNKRAPGVPARFSGSLLGGKAALTISGAQPEDEADYYCALWYSNHWVFGGGTKLTVLGQPKAAPSVTLFPPSSEELQANKATLVCLISDFYPGAVTVAWKADSSPVKAGVETTTPSKQSNNKYAASSYLSLTPEQWKSHRSYSCQVTHEGSTVEKTVAPTECS
In the case of B4, the Kd [5] is reported as 0.12 nM.

B5: M1394 (bispecific antibody)
chain 1: SSELTQDPAVSVALGQTVRITCTADTLSRSYASWYQQKPGQAPVLVIYRDTSRPSGIPDRFSGSSSGNTASLTITGAQAEDEADYYCATRPSSGSNFQLFGGGTKLTVLGGGGGSGGGGSGGGGSGGGGSEVQLLESGGGSVQPGGSLRLSCTVSGFSLSNYAMSWVRQAPGKGLEWIGIVSSGGTTYYASWAKGRFTISRDNSKNTVYLQMNSLRAEDTASYYCAKDLYYGPNTDYSAANLWGQGTSVTVSS
chain 2: B4 chain 2
chain 3: B4 chain 3
With B5 the Kd [6] was 1.4 nM.

B6: M1068 (bispecific antibody)
chain 1: B4 chain 1 with Y178W
chain 2: B4 chain 2
chain 3: B4 chain 3
In the case of B6, the Kd [6] is reported as 1 nM.

B7: M1312 (bispecific antibody)
chain 1: B5 chain 1 with R201K, N203T
chain 2: B4 chain 2
chain 3: B4 chain 3
For B7, the Kd [6] was 0.8 nM.

B8: M0873 (antibody, V domains shown)
VH: ESQVLESGGGSVQPGGSLRLSCTVSGFSLSNYAMSWVRQAPGKGLEYIGIVSSGGTTYYASWAKGRFTISKDTSKNTVYLQMNSLRAEDTASYYCAKDLYYGPTTYSAFNLWGQGTSVTVSS
VL: SYELTQPPSVSVSPGQTASITCTADTLSRSYASWYQQKPGQSPVLVIYRDTSRPSGIPERFSGSNSGNTATLTISGTQAMDEADYYCATSDGSGSNFQLFGGGTKLTVL
For B8, the “EC50 (read off the curve)” value [7] was ~1 nM.

Reference: patent publication US20250144141A1 (CDR LIFE, published 2025)
